The results in this text go back to patent US20150267176.

For data set [1], the system named is SCL enhancer TALE-3X FLAG. To be noted: anti-FLAG ChIP-seq in K562, input 1; top ranked and only reproducible peak; exact SCL target not identified in text (candidates SEQ 9, 11, 37).
The subject of a further data set is SCL enhancer TALE-LSD1. Put plainly: cell_activity. The following applies: K562 ChIP-qPCR vs mCherry; H3K27ac reduced >4-fold. (In general: Quantitative PCR measures a nucleic acid by following its amplification.)
Data set [2] concerns TALE-LSD1 #11 (ZFPM2 +16). Description: cell_activity. The following applies: expression change not significant; histone modification levels at target reduced; +16 matched to #11 by coordinates.
In data set [3] the test system is TALE-LSD1 #25 (ZFPM2 +10). Put plainly: cell_activity. To be noted: K562 RT-qPCR; +10 enhancer matched to #25 by coordinates; also reduces enhancer histone marks.
The subject of data set [4] is TALE-LSD1 #28 (ZFPM2 +45). Put plainly: cell_activity. To be noted: expression change not significant; histone modification levels at target reduced; +45 matched to #28 by coordinates.

SCL enhancer 18 bp TALE target (18/18): the binding signal (tags per 1 kb bin) in data set [1] is 17.5. Moreover, in the data set with SCL enhancer TALE-LSD1, the activity (fold reduction of H3K4me2) is 3.

In data set [2], TALE #11 target chr8:106,347,824 displayed an activity (% reduction of ZFPM2 expression) of 13.

With TALE #25 target chr8:106,341,287, the activity (fold reduction of ZFPM2 expression) in data set [3] was 2.

TALE #28 target chr8:106,376,850 yielded an activity (% reduction of ZFPM2 expression) in data set [4] of 22.
